The source of these data is IntAct's records for PubMed 25910212.

The chains are these.
B1: EF-hand domain-containing protein 1 (Homo sapiens), Q5JVL4 (parent)
chain: MVSNPVHGLPFLPGTSFKDSTKTAFHRSQTLSYRNGYAIVRRPTVGIGGDRLQFNQLSQAELDELASKAPVLTYGQPKQAPPADFIPAHVAFDKKVLKFDAYFQEDVPMSTEEQYRIRQVNIYYYLEDDSMSVIEPVVENSGILQGKLIKRQRLAKNDRGDHYHWKDLNRGINITIYGKTFRVVDCDQFTQVFLESQGIELNPPEKMALDPYTELRKQPLRKYVTPSDFDQLKQFLTFDKQVLRFYAIWDDTDSMYGECRTYIIHYYLMDDTVEIREVHERNDGRDPFPLLMNRQRVPKVLVENAKNFPQCVLEISDQEVLEWYTAKDFIVGKSLTILGRTFFIYDCDPFTRRYYKEKFGITDLPRIDVSKREPPPVKQELPPYNGFGLVEDSAQNCFALIPKAPKKDVIKMLVNDNKVLRYLAVLESPIPEDKDRRFVFSYFLATDMISIFEPPVRNSGIIGGKYLGRTKVVKPYSTVDNPVYYGPSDFFIGAVIEVFGHRFIILDTDEYVLKYMESNAAQYSPEALASIQNHVRKREAPAPEAESKQTEKDPGVQELEALIDTIQKQLKDHSCKDNIREAFQIYDKEASGYVDRDMFFKICESLNVPVDDSLVKELIRMCSHGEGKINYYNFVRAFSN
partner: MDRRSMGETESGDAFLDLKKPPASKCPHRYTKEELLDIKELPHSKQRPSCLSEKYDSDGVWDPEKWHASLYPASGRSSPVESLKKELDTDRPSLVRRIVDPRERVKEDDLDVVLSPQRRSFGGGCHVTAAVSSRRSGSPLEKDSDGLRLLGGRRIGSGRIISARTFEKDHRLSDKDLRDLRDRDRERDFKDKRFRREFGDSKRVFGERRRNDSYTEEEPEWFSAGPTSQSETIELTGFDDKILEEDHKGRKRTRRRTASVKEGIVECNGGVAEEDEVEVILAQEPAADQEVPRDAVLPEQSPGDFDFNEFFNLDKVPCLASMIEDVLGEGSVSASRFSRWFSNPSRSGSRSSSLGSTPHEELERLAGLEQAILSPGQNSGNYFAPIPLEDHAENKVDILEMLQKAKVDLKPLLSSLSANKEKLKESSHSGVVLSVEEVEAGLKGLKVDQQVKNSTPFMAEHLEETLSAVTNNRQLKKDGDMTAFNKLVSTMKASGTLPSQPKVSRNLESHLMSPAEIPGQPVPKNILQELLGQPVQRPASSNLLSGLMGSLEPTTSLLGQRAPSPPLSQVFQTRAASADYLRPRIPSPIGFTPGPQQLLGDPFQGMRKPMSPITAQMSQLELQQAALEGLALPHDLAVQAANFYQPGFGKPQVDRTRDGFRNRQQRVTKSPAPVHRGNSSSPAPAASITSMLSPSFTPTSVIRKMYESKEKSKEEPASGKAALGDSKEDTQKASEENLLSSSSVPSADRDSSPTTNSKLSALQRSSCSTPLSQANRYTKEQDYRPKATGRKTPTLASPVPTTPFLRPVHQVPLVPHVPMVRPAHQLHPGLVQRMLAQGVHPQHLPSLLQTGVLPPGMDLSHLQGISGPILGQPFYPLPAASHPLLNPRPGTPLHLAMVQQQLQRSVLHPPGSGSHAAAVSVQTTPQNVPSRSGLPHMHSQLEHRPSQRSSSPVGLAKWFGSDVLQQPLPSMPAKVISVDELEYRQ
B2: Corrinoid adenosyltransferase MMAB (Homo sapiens), Q96EY8 (parent)
chain: MAVCGLGSRLGLGSRLGLRGCFGAARLLYPRFQSRGPQGVEDGDRPQPSSKTPRIPKIYTKTGDKGFSSTFTGERRPKDDQVFEAVGTTDELSSAIGFALELVTEKGHTFAEELQKIQCTLQDVGSALATPCSSAREAHLKYTTFKAGPILELEQWIDKYTSQLPPLTAFILPSGGKISSALHFCRAVCRRAERRVVPLVQMGETDANVAKFLNRLSDYLFTLARYAAMKEGNQEKIYMKNDPSAESEGL
partner: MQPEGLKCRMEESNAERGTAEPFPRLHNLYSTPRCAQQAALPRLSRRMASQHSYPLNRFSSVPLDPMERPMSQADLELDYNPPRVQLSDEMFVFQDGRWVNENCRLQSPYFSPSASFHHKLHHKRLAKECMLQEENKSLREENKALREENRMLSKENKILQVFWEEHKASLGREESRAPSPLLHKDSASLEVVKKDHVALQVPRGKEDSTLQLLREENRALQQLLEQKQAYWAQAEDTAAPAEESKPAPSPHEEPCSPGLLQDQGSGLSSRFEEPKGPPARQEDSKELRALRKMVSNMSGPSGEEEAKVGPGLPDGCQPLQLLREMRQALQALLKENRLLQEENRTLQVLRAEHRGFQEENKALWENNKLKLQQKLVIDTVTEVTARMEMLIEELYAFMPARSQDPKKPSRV
B3: Beta-crystallin A4 (Homo sapiens), P53673 (parent)
chain: MTLQCTKSAGPWKMVVWDEDGFQGRRHEFTAECPSVLELGFETVRSLKVLSGAWVGFEHAGFQGQQYILERGEYPSWDAWGGNTAYPAERLTSFRPAACANHRDSRLTIFEQENFLGKKGELSDDYPSLQAMGWEGNEVGSFHVHSGAWVCSQFPGYRGFQYVLECDHHSGDYKHFREWGSHAPTFQVQSIRRIQQ
partner: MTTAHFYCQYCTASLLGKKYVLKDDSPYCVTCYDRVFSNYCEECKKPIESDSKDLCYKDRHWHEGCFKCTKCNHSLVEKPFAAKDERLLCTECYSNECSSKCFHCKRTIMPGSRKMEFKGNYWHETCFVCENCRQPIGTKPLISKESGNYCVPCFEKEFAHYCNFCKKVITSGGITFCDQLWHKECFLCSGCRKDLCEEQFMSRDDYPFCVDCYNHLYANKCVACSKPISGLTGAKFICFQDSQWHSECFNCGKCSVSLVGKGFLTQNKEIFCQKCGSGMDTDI

The variants in the first assay derive from B1. The following applies: with 4et_human EIF4ENIF1, Q9NRA8.
With A394S, the “effect of a mutation on the interaction” value was “disrupting interaction strength”.

As for R159W, the “effect of a mutation on the interaction” value is reported as “with no effect”.

On to M448T, for which the “effect of a mutation on the interaction” value is “with no effect”.

In the case of T508R, the “effect of a mutation on the interaction” value is recorded as “disrupting interaction strength”.

As to P77T, the “effect of a mutation on the interaction” value is on record as “disrupting interaction strength”.

R221H: the “effect of a mutation on the interaction” value is reported as “disrupting interaction strength”.

A further assay covers variants of B2. Particulars: with CBY2, Q8NA61-2.
Take I96T: the “effect of a mutation on the interaction” value is recorded as “with no effect”.

Regarding A135T, the “effect of a mutation on the interaction” value is “with no effect”.

With R186Q, the “effect of a mutation on the interaction” value is reported as “with no effect”.

Take R190C: the “effect of a mutation on the interaction” value was “with no effect”.

In another assay the parent is B3. Particulars: with fhl5_human FHL5, Q5TD97.
On to F94S, for which the “effect of a mutation on the interaction” value was “disrupting interaction strength”.
